PMC5025857, “Redox-dependent Regulation of Gluconeogenesis by a Novel Mechanism Mediated by a Peroxidatic Cysteine of Peroxiredoxin” (Scientific Reports, 2016)

Target: T1, HA-tagged Pyk1 (HA-Pyk1) (S. cerevisiae, UniProt P00549 1-500)
T1 construct: Pyk1 (Cdc19), pyruvate kinase of S. cerevisiae; also called pRS313-HA-PYK1; source: S. cerevisiae (pyk1∆ tsa1/2∆ or pyk1∆ cells) carrying pRS313-HA-PYK1, in lysate (whole cell extract)
T1 sequence (looked up): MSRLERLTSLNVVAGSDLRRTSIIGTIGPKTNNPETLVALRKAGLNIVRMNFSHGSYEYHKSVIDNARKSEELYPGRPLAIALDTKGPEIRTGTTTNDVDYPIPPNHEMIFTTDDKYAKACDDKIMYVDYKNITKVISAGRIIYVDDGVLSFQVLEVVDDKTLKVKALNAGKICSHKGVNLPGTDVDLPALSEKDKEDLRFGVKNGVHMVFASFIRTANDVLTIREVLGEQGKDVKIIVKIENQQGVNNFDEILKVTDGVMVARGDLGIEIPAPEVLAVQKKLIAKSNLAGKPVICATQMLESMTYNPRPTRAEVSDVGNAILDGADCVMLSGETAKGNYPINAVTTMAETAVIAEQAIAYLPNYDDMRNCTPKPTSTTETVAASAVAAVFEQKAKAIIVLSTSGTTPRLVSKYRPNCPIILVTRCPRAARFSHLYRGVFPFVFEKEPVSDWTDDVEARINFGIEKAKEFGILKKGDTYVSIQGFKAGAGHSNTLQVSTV
Experiment: co-IP; HA-Pyk1 precipitated with anti-HA antibody beads from yeast whole cell extract (400 μg; IP buffer: 100 mM MES pH 7.0, 200 mM KCl, 15 mM MgCl2, 5% glycerol, 0.15% NP-40, 50 mM NEM; 4 °C, 3 h); immunoblot with anti-Tsa1, anti-Pyk1 and anti-Prx-SO2/SO3; cells from glucose (SDM) or ethanol (SEM -Trp) medium, exponential, diauxic shift or early stationary phase, with or without 1, 3 or 10 mM H2O2
Settings: partners not purified

B1: Tsa1^C48T (enzyme, S. cerevisiae, UniProt P34760 1-196, looked up)
chain: MVAQVQKQAPTFKKTAVVDGVFDEVSLDKYKGKYVVLAFIPLAFTFVTPTEIIAFSEAAKKFEEQGAQVLFASTDSEYSLLAWTNIPRKEGGLGPINIPLLADTNHSLSRDYGVLIEEEGVALRGLFIIDPKGVIRHITINDLPVGRNVDEALRLVEAFQWTDKNGTVLPCNWTPGAATIKPTVEDSKEYFEAANK
notes: Tsa1 of S. cerevisiae with the peroxidatic cysteine Cys48 mutated to Thr; source: S. cerevisiae pyk1∆ tsa1/2∆ cells carrying an expression vector (pRS315), in lysate
  fold decrease of Pyk1-bound Tsa1 against wild-type Tsa1 (ethanol medium): ~3 fold

B2: Tsa1^C171T (enzyme, S. cerevisiae, UniProt P34760 1-196, looked up)
chain: MVAQVQKQAPTFKKTAVVDGVFDEVSLDKYKGKYVVLAFIPLAFTFVCPTEIIAFSEAAKKFEEQGAQVLFASTDSEYSLLAWTNIPRKEGGLGPINIPLLADTNHSLSRDYGVLIEEEGVALRGLFIIDPKGVIRHITINDLPVGRNVDEALRLVEAFQWTDKNGTVLPTNWTPGAATIKPTVEDSKEYFEAANK
notes: Tsa1 of S. cerevisiae with the resolving cysteine Cys171 mutated to Thr; source: S. cerevisiae tsa1/2Δ cells carrying an expression vector (pRS315), in lysate
  stoichiometry N: 8 molecules of Tsa1^C171T for each tetramer of Pyk1
